For assay [1], the target named is T1, human FcRH2 with N-terminal gD-expression tag on SVT2 cells (human, UniProt Q96LA5 20-508).
T1 construct: whole, on cells; also called SVT2/FcRH2
T1 sequence (looked up): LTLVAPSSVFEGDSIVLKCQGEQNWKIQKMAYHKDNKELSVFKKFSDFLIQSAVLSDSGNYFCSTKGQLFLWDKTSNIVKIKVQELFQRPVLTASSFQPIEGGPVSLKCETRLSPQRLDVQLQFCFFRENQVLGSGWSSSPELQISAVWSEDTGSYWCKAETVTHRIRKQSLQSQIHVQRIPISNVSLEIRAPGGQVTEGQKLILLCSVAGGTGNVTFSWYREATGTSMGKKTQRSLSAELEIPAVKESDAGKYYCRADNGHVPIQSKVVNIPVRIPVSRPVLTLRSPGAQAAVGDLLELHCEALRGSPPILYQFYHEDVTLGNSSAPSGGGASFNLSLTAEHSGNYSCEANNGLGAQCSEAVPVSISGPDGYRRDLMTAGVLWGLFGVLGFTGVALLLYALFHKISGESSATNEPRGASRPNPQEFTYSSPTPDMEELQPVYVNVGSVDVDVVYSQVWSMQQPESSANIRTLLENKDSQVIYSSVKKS
The assay is described as follows: FACS, SVT2 cells with gD-tagged FcRH2, subclone supernatants, anti-mouse PE. The text has this: Fc receptor homolog (FcRH) family molecules have a high degree of homology to one another (Miller et al., 2002). The homology is especially high between the membrane proximal domains, which the E11 antibodies target (Miller et al., 2002). To investigate the cross reactivity to family members, FcRH1, FcRH2, FcRH3 and FcRH4 (all including an N-terminal gD-expression tag) were expressed in SVT2 cells and cells were stained with subclone supernatants and goat anti-mouse-PE secondary antibody. Expression of the transfected FcRH was confirmed by a signal from anti-gD antibody in all cell lines. […] Overall, the signals from FcRH3-expressing SVT2 cells were low, including the gD control antibody, indicative of low expression level. Low level of binding to FcRH3-expressing SVT2 cells was detected for 1F4 and 4H8 supernatants (FIG. 6C).

The target of assay [2] is T2, human FcRH5c (full length human FcRH5) (human, UniProt Q96RD9 16-977).
T2 construct: Used on transfected SVT2, 293, EJM and OPM2 cells and endogenously on MOLP-2 cells and CD19+ B cells; also called IRTA2c; huFcRH5
T2 sequence: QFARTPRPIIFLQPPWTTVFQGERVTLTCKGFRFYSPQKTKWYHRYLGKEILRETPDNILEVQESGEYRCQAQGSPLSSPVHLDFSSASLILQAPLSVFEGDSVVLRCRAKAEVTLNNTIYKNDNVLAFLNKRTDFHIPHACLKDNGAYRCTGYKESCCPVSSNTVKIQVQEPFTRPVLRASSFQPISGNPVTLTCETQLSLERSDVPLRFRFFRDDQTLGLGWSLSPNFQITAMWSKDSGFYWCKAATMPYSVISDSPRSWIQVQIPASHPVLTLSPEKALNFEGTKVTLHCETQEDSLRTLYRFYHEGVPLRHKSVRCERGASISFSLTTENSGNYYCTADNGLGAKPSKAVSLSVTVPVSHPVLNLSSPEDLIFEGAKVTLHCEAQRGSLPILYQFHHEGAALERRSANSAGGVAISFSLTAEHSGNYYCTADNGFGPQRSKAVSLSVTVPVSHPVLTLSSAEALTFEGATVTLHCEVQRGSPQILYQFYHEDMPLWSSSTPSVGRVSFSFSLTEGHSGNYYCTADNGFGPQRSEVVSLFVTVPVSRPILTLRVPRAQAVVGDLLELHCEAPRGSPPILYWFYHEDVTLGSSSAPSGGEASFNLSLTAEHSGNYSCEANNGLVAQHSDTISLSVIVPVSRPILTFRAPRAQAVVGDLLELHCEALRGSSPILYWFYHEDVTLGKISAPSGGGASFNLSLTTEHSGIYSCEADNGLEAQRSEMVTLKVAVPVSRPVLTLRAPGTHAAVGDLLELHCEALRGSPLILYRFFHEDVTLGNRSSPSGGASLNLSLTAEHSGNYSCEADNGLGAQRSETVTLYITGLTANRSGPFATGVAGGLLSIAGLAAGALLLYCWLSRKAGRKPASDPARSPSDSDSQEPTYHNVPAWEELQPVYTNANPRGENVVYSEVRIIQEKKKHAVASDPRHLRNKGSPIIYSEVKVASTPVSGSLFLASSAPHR
The assay is described as follows: FACS, APC-labelled antibodies on SVT2 cells with full-length human FcRH5. In general terms: A flow cytometer gives signals particle by particle.

B1: 3B12.1.1 (antibody, IgG2b, V domains shown)
VH: EVQLQQSGPELVKPGASVKISCKTSGYTFTEYTIHWVKQSHGKSLERIGGINPNNDAVSYNQRFRGKATLTVDKSSSTAYMELRSLTSEDSAVYYCAKLGRGYYFDYWGQGTTLTVSSASTKGPSVFPLAP
VL: DIQMTQSPASLSASVGETVTITCRASENIYSNLAWYQLKQGKSPQLLVYGAANLAEGVPSRISGSGSGTQYSLKINSLQSEDFGTYYCQHFWGIPWTFGGGTKLEIKRTVAA
notes: parent 3B12 and subclone 3B12.1 treated as the same antibody; also called 3B12.1.mIgG2b
As for B1, the figures for the binding result in assay [1] and in assay [2] were “no binding” and “binds”, respectively.
